The results in this text go back to PMC6282390.

The subject of data set [1] is Dicer D1320A/D1709A (Homo sapiens). The data set can be described thus: EMSA. Particulars: 5'-phosphate, 3'-OH; 50 mM Tris pH 7.6, 50 mM NaCl, 10% glycerol, 0.05% NP-40, 2 mM DTT, (0.5 mM EDTA for WT), 2 pM RNA (10 pM in Fig. 4 legend), 30 min at 4 °C.
The next data set relates to Dicer WT (Homo sapiens). The data set can be described thus: EMSA. To be noted: 5'-phosphate, 3'-OH; 50 mM Tris pH 7.6, 50 mM NaCl, 10% glycerol, 0.05% NP-40, 2 mM DTT, (0.5 mM EDTA for WT), 2 pM RNA (10 pM in Fig. 4 legend), 30 min at 4 °C.

As to pre-let-7a-1, the Kd in data set [1] was 9 nM; in the data set on Dicer WT (Homo sapiens), 5 nM.
